Laboratory results: patent US20230272104A1 (LEGEND BIOTECH IRELAND, published 2023)

Experiments:
[1] = molecular target: T1, human CD20 (membrane spanning 4-domains A1, MS4A1) on cells (human, UniProt P11836 1-297); assay: flow cytometry, mAb titrated on Raji cells, PE anti-human IgG1 Fc detection
T1 construct: whole, on cells; Target cells used: Raji, K562-CD20, CHO-CD20, Daudi, RPMI-8226 (very low CD20); also called CD20 receptor; CD20 antigen
T1 sequence (looked up): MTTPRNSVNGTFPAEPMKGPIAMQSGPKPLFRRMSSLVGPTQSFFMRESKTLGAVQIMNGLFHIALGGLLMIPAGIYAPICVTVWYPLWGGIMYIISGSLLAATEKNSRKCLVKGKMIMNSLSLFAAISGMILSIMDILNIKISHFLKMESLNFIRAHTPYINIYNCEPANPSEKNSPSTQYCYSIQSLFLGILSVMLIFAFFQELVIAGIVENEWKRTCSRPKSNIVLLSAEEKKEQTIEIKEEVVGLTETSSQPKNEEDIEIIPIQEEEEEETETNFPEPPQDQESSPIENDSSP
Text: (§1) Each of three exemplary of anti-CD20 VHH sequences (clone ID: VHH-273, VHH-466 and VHH-496) with human IgG1 Fc fragment sequence (SEQ ID NO: 159) were cloned into a mammalian expression vector—pcDNA3.4, to facilitate the recombinant protein expression. The DNA codons were further optimized for optimal expression in mammalian host cell—Expi293F. The antibodies were harvested from the supernatant of cell culture, one-step purified by MabSelect SuRe LX and sterilized via a 0.2 μm filter. The purified antibody concentrations were determined by A280 and reached 2-6 mg/mL with ˜90% purity. Anti-CD20 scFv-huIgG1Fc mAb with amino acid sequence of Rituximab (C2B8) scFv shown in SEQ ID NO: 158 and anti-CD20 Fab-huIgG1Fc mAb with amino acid sequences of Leul6 VH-CH1 and VL-CL shown in SEQ ID NO: 163 and SEQ ID NO: 164 were used as positive controls for the cell surface binding assay. CD20 positive cell lines—Raji, K562-CD20 and negative cell line—K562 were re-suspended in complete culture medium, cells concentration was diluted to 1×10⁶ cells/mL and the staining was performed in 2×10⁵ cells per well. The mAbs were serially diluted from maximal concentration of 2000 nM (3-fold reduction, 12 pts) and added according to the experimental plan and protocol. The mAbs and cells were co-incubated for 1 hour at 4° C. Then, the cells were washed with 2(X) μL of DPBS+0.5% FBS and spun at 300 g for 5 mins, 4° C. The cells were stained with the detection antibody—PE-conjugated mouse anti-human IgG1 Fc (BioLegend, Cat. #409304, 1:100) for 40 mins at 4° C. The cells were then washed again and re-suspended with 200 μL of DPBS+0.5% FBS for flow cytometric analysis on a NovoCyte Flow Cytometer (ACEA Biosciences). The FACS data was analyzed by Novoexpress software, and the MFI (median fluorescent intensity) was analyzed by GraphPad PRISM version 6.0.

[2] = molecular target: T1, human CD20 (membrane spanning 4-domains …); assay: flow cytometry, mAb titrated on K562-CD20 cells, PE anti-human IgG1 Fc detection
Text: as §1, with “The mAbs and cells were co-incubated for 1 hour at 4° C. Then, the cells were washed with 2(X) μL of DPBS+0.5% FBS and spun at 300 g for 5 mins, 4° C. The cells were stained with the detection antibody—PE-conjugated mouse anti-human IgG1 Fc (BioLegend, Cat. #409304, 1:100) for 40 mins at 4° C. The cells were then washed again and re-suspended with 200 μL of DPBS+0.5% FBS for flow cytometric analysis on a NovoCyte Flow Cytometer (ACEA Biosciences).” left out

Binder | EC50 [1] | EC50 [2]
Anti-CD20 Fab-huIgG1Fc mAb (antibody, V domains shown, also called Leul6 (Leu16) Fab-huIgG1Fc; not shown: human IgG1 Fc by the name) VH: EVQLQQSGAELVKPGASVKMSCKASGYTFTSYNMHWVKQTPGQGLEWIGAIYPGNGDTSYNQKFKGKATLTADKSSSTAYMQLSSLTSEDSADYYCARSNYYGSSYWFFDVWGAGTTVTVSS VL: DIVLTQSPAILSASPGEKVTMTCRASSSVNYMDWYQKKPGSSPKPWIYATSNLASGVPARFSGSGSGTSYSLTISRVEAEDAATYYCQQWSFNPPTFGGGTKLEIKR | 13.5 nM | 
Anti-CD20 scFv-huIgG1Fc mAb (Fc fusion, also called Rituximab (C2B8) scFv-huIgG1Fc; not shown: human IgG1 Fc by the name) QIVLSQSPAILSASPGEKVTMTCRASSSVSYIHWFQQKPGSSPKPWIYATSNLASGVPVRFSGSGSGTSYSLTISRVEAEDAATYYCQQWTSNPPTFGGGTKLEIKGGGGSGGGGSGGGGSQVQLQQPGAELVKPGASVKMSCKASGYTFTSYNMHWVKQTPGRGLEWIGAIYPGNGDTSYNQKFKGKATLTADKSSSTAYMQLSSLTSEDSAVYYCARSTYYGGDWYFNVWGAGTTVTVSA | 75.3 nM | 41.1 nM
VHH-440-huIgG1Fc mAb (Fc fusion, not shown: human IgG1 Fc by the name) QVHLMESGGGSVQAGGSLRLSCQASAYIRVFYLMGWFRQAPGKEREEVARVTADGFTNHAASVKGRFTISKDNAKNTLYLQMDSMKSEDTAVYYCAAGRTWNSGFEYWGQGTQVTVSS | 11.1 nM | 6.24 nM
